Measurements: IntAct's records for PubMed 31515488

B1: Hypoxanthine-guanine phosphoribosyltransferase (Homo sapiens), P00492 (parent)
chain: MATRSPGVVISDDEPGYDLDLFCIPNHYAEDLERVFIPHGLIMDRTERLARDVMKEMGGHHIVALCVLKGGYKFFADLLDYIKALNRNSDRSIPMTVDFIRLKSYCNDQSTGDIKVIGGDDLSTLTGKNVLIVEDIIDTGKTMQTLLSLVRQYNPKMVKVASLLVKRTPRSVGYKPDFVGFEIPDKFVVGYALDYNEYFRDLNHVCVISETGKAKYKA
B2: Cancer/testis antigen 2 (Homo sapiens), O75638 (parent)
chain: MQAEGRGTGGSTGDADGPGGPGIPDGPGGNAGGPGEAGATGGRGPRGAGAARASGPRGGAPRGPHGGAASAQDGRCPCGARRPDSRLLELHITMPFSSPMEAELVRRILSRDAAPLPRPGAVLKDFTVSGNLLFMSVRDQDREGAGRMRVVGWGLGSASPEGQKARDLRTPKHKVSEQRPGTPGPPPPEGAQGDGCRGVAFNVMFSAPHI
B3: STAM-binding protein (Homo sapiens), O95630 (parent)
chain: MSDHGDVSLPPEDRVRALSQLGSAVEVNEDIPPRRYFRSGVEIIRMASIYSEEGNIEHAFILYNKYITLFIEKLPKHRDYKSAVIPEKKDTVKKLKEIAFPKAEELKAELLKRYTKEYTEYNEEKKKEAEELARNMAIQQELEKEKQRVAQQKQQQLEQEQFHAFEEMIRNQELEKERLKIVQEFGKVDPGLGGPLVPDLEKPSLDVFPTLTVSSIQPSDCHTTVRPAKPPVVDRSLKPGALSNSESIPTIDGLRHVVVPGRLCPQFLQLASANTARGVETCGILCGKLMRNEFTITHVLIPKQSAGSDYCNTENEEELFLIQDQQGLITLGWIHTHPTQTAFLSSVDLHTHCSYQMMLPESVAIVCSPKFQETGFFKLTDHGLEEISSCRQKGFHPHSKDPPLFCSCSHVTVVDRAVTITDLR
partner: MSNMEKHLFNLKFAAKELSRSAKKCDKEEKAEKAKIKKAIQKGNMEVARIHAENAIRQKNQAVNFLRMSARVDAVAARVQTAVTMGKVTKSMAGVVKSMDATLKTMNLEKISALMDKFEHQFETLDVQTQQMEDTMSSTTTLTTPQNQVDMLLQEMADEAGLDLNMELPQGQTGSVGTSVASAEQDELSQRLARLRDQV
B4: Septin-12 (Homo sapiens), Q8IYM1 (parent)
chain: MDPLRRSPSPCLSSQPSSPSTPPCEMLGPVGIEAVLDQLKIKAMKMGFEFNIMVVGQSGLGKSTMVNTLFKSKVWKSNPPGLGVPTPQTLQLHSLTHVIEEKGVKLKLTVTDTPGFGDQINNDNCWDPILGYINEQYEQYLQEEILITRQRHIPDTRVHCCVYFVPPTGHCLRPLDIEFLQRLCRTVNVVPVIARADSLTMEEREAFRRRIQQNLRTHCIDVYPQMCFDEDINDKILNSKLRDRIPFAVVGADQEHLVNGRCVLGRKTKWGIIEVENMAHCEFPLLRDLLIRSHLQDLKDITHNIHYENYRVIRLNESHLLPRGPGWVNLAPASPGQLTTPRTFKVCRGAHDDSDDEF
partner: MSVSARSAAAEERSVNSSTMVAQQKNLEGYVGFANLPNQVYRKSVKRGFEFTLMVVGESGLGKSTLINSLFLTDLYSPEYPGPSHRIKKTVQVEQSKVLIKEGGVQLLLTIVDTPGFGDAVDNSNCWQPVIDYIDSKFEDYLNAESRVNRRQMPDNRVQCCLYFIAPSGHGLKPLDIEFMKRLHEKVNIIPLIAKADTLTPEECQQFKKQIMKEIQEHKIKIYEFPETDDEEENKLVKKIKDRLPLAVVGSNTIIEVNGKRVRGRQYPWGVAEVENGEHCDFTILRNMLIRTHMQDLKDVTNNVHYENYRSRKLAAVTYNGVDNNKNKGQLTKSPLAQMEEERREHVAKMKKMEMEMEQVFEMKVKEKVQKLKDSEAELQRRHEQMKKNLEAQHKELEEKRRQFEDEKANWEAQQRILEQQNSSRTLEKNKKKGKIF
B5: Microtubule-associated tumor suppressor candidate 2 (Homo sapiens), Q5JR59-3 (parent)
chain: MGHCCCKPYNCLQCLDKTNESALVKEKELSIELANIRDEVAFHTAKCEKLQKEKEELERRFEDEVKRLGWQQQAELQELEERLQLQFEAEMARLQEEHGDQLLSIRCQHQEQVEDLTASHDAALLEMENNHTVAITILQDDHDHKVQELMSTHELEKKELEENFEKLRLSLQDQVDTLTFQSQSLRDRARRFEEALRKNTEEQLEIALAPYQHLEEDMKSLKQVLEMKNQQIHEQEKKILELEKLAEKNIILEEKIQVLQQQNEDLKARIDQNTVVTRQLSEENANLQEYVEKETQEKKRLSRTNEELLWKLQTGDPTSPIKLSPTSPVYRGSSSGPSSPARVSTTPR

Variants of: B1
Conditions: with sdcb1_human SDCBP
P38S was tested, and the “effect of a mutation on the interaction” value was “disrupting interaction strength”.
With C206Y the “effect of a mutation on the interaction” value was “disrupting interaction strength”.

Variants of: B1
Conditions: with iscu_human ISCU
With P38S the “effect of a mutation on the interaction” value was “disrupting interaction strength”.
For C206Y, the “effect of a mutation on the interaction” value was “disrupting interaction strength”.

Variants of: B1
Conditions: with prdc1_human PRTFDC1, Q9NRG1
Sequence of prdc1_human PRTFDC1, Q9NRG1 (Q9NRG1 whole entry): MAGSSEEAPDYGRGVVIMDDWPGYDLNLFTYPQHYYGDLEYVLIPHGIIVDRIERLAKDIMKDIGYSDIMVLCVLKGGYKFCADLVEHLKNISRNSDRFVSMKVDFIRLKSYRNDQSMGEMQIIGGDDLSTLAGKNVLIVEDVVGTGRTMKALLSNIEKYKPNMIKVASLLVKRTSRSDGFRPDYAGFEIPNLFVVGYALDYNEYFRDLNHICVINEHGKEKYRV
In the case of P38S, the “effect of a mutation on the interaction” value is reported as “with no effect”.
C206Y was tested, and the “effect of a mutation on the interaction” value was “with no effect”.

Variants of: B1
Conditions: with ntaq1_human NTAQ1, Q96HA8
In the case of P38S, the “effect of a mutation on the interaction” value is reported as “disrupting interaction strength”.
With C206Y the “effect of a mutation on the interaction” value was “disrupting interaction strength”.

Variants of: B2
Conditions: with ubql1_human UBQLN1, Q9UMX0
For A80T, the “effect of a mutation on the interaction” value was “with no effect”.

Variants of: B2
Conditions: with trip6_human TRIP6, Q15654
Sequence of trip6_human TRIP6, Q15654 (Q15654 whole entry): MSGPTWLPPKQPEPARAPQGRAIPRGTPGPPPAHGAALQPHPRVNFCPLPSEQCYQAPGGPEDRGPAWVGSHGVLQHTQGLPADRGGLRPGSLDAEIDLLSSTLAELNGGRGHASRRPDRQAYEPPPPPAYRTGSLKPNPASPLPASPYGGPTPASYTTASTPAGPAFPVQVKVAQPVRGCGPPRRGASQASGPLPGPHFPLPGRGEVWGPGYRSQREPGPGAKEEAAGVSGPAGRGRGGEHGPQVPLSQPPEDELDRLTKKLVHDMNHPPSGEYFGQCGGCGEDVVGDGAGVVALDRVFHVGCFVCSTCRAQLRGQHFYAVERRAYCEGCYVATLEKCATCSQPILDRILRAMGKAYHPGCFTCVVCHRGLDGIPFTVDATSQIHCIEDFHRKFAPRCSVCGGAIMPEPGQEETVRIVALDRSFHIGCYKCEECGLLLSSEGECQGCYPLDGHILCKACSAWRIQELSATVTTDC
A80T was tested, and the “effect of a mutation on the interaction” value was “with no effect”.

Variants of: B3
Conditions: with chm1b_human CHMP1B
For Q155H, the “effect of a mutation on the interaction” value was “with no effect”.
R255H was tested, and the “effect of a mutation on the interaction” value was “with no effect”.

Variants of: B4
Conditions: with sept7_human SEPTIN7, Q16181
In the case of G169E, the “effect of a mutation on the interaction” value is reported as “disrupting interaction strength”.
For D197N, the “effect of a mutation on the interaction” value was “disrupting interaction strength”.

Variants of: B5
Conditions: with catz_human CTSZ
For A89V, the “effect of a mutation on the interaction” value was “with no effect”.

Variants of: B5
Conditions: with zn136_human ZNF136, P52737
Sequence of zn136_human ZNF136, P52737 (P52737 whole entry): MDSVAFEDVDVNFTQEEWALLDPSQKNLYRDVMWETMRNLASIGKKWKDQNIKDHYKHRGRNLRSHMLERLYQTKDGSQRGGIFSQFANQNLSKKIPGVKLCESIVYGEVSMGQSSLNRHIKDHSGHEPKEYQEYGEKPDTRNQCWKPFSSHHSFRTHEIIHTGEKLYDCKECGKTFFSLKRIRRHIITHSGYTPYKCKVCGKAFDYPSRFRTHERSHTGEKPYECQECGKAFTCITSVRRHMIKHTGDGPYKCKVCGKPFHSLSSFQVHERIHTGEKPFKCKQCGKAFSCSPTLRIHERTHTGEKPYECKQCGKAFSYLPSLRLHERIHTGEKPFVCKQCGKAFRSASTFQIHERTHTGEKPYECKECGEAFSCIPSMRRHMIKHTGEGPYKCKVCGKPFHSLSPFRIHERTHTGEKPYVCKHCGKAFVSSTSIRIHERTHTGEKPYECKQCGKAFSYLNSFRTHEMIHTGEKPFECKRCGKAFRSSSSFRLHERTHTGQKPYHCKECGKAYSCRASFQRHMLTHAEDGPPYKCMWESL
A89V was tested, and the “effect of a mutation on the interaction” value was “with no effect”.

Variants of: B5
Conditions: with TSGA10IP
With A89V the “effect of a mutation on the interaction” value was “with no effect”.

Variants of: B5
Conditions: with kat5_human KAT5, Q92993
Sequence of kat5_human KAT5, Q92993 (Q92993 whole entry, looked up): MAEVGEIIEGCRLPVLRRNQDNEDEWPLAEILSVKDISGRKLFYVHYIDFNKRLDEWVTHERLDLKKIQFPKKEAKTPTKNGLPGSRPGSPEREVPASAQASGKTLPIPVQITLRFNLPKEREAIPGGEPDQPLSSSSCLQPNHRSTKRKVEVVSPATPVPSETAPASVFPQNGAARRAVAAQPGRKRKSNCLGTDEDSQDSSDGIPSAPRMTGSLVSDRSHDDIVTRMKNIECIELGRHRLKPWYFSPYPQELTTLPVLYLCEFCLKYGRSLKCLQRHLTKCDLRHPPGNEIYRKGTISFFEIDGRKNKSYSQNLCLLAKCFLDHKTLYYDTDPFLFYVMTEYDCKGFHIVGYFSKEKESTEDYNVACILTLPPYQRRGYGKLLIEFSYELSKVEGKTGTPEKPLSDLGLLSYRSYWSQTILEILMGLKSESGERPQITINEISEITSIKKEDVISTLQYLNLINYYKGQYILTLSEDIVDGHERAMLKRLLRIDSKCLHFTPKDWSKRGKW
In the case of A89V, the “effect of a mutation on the interaction” value is reported as “with no effect”.

Variants of: B5
Conditions: with cd5r1_human CDK5R1, Q15078
Sequence of cd5r1_human CDK5R1, Q15078 (Q15078 whole entry): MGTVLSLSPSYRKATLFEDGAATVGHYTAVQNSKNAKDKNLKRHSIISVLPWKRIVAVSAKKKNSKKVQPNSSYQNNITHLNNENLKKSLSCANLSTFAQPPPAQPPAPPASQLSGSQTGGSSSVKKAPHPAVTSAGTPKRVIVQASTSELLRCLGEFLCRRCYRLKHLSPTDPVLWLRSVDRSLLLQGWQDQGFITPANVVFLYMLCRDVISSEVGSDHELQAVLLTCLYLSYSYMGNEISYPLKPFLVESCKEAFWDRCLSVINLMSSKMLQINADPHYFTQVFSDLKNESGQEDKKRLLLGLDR
A89V was tested, and the “effect of a mutation on the interaction” value was “with no effect”.

Variants of: B5
Conditions: with bmp7_human BMP7, P18075
For A89V, the “effect of a mutation on the interaction” value was “with no effect”.

Variants of: B5
Conditions: with gtpba_human GTPBP10, A4D1E9
Sequence of gtpba_human GTPBP10, A4D1E9 (A4D1E9 whole entry): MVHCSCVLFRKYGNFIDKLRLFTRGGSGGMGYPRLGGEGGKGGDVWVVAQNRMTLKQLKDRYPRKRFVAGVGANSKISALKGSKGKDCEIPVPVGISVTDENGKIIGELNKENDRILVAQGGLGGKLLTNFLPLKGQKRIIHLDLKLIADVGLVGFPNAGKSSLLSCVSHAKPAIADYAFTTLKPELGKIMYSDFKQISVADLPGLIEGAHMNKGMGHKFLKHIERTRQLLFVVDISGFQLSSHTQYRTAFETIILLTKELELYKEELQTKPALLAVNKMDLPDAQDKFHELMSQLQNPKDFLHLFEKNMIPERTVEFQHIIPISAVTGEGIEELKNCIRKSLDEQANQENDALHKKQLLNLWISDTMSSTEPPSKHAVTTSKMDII
With A89V the “effect of a mutation on the interaction” value was “with no effect”.

Variants of: B5
Conditions: with cdkl3_human CDKL3, Q8IVW4
Sequence of cdkl3_human CDKL3, Q8IVW4 (Q8IVW4 whole entry, looked up): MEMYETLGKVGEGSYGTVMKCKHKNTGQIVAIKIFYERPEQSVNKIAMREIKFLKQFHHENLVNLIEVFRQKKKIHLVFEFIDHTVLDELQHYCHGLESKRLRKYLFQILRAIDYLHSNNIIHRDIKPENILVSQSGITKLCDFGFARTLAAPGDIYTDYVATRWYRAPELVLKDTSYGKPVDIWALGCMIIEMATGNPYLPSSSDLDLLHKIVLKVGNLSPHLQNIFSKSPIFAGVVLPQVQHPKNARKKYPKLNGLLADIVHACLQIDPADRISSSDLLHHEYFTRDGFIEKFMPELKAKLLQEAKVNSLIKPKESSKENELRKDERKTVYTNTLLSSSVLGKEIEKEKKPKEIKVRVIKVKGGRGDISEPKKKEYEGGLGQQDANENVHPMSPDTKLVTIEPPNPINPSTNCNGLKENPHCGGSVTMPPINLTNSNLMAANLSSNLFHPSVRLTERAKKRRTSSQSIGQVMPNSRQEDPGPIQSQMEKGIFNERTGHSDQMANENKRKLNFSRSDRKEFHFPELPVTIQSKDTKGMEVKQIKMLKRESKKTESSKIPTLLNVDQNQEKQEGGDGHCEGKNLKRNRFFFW
With A89V the “effect of a mutation on the interaction” value was “with no effect”.

Variants of: B5
Conditions: with cu058_human C21orf58, P58505
Sequence of cu058_human C21orf58, P58505 (P58505 whole entry): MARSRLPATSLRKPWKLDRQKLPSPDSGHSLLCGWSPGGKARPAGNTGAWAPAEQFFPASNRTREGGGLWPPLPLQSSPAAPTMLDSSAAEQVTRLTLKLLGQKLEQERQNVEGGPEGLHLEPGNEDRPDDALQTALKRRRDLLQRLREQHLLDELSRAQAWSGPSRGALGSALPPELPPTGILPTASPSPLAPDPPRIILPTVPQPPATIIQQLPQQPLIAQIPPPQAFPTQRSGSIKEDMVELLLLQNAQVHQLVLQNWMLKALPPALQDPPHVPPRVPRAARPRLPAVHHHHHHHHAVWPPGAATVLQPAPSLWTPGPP
With A89V the “effect of a mutation on the interaction” value was “with no effect”.

Variants of: B5
Conditions: with zn426_human ZNF426, Q9BUY5
Sequence of zn426_human ZNF426, Q9BUY5 (Q9BUY5 whole entry): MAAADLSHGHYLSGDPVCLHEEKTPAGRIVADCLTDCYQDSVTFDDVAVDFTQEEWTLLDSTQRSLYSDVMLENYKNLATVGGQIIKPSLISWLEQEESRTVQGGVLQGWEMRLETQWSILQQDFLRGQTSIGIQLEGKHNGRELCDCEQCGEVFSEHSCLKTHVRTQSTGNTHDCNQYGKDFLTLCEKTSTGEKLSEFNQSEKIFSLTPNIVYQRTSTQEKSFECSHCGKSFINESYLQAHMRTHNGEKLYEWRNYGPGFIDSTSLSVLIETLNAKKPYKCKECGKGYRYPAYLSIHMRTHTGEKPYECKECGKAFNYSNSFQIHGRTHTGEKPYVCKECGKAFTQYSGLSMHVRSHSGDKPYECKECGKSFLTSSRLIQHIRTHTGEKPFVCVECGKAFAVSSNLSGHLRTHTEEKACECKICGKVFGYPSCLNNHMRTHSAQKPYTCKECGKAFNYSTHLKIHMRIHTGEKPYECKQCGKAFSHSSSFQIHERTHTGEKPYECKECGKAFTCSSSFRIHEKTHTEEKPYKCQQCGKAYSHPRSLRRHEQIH
With A89V the “effect of a mutation on the interaction” value was “with no effect”.

Variants of: B5
Conditions: with snai1_human SNAI1, O95863
Sequence of snai1_human SNAI1, O95863 (O95863 whole entry): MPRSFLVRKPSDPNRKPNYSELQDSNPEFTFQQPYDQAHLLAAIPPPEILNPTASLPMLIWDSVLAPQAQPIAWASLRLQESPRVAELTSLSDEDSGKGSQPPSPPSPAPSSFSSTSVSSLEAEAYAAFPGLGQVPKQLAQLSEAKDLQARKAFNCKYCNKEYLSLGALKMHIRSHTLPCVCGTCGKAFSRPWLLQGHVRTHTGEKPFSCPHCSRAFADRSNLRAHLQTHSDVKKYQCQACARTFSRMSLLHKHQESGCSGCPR
With A89V the “effect of a mutation on the interaction” value was “with no effect”.

Variants of: B5
Conditions: with zn329_human ZNF329, Q86UD4
Sequence of zn329_human ZNF329, Q86UD4 (Q86UD4 whole entry): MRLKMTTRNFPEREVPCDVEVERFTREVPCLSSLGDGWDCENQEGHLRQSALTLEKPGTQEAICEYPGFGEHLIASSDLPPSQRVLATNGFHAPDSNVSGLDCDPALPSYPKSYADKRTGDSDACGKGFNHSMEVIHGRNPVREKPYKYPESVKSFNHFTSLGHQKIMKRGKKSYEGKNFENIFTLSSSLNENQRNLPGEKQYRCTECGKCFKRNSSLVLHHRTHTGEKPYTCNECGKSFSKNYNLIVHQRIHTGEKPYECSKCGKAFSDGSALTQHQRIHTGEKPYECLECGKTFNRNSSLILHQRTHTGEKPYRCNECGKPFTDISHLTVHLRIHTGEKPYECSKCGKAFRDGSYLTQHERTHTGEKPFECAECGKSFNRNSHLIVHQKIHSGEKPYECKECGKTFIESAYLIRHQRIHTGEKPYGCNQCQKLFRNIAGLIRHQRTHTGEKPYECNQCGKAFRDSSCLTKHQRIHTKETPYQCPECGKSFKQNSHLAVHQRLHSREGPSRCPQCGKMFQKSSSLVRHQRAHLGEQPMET
In the case of A89V, the “effect of a mutation on the interaction” value is reported as “with no effect”.
